Reference: publication PMC5924911
pKd: −log10 of the molar value.

Key:
[1] = biological target: NaV1.4 p.R222G channel (UniProt P35499)
[2] = biological target: NaV1.4 p.R222W channel (UniProt P35499)
[3] = biological target: VSD-I of human NaV1.4 (residues L114–S246) (human) (UniProt P35499); assay: NMR titration

## Hm-3 toxin from the crab spider Heriaeus melloteei (peptide)
[1]
  percent of guanidinium-enhanced IGP suppressed by 10 μM Hm-3 at −80 mV, oocytes: 64%
[2]
  percent of guanidinium-enhanced IGP suppressed by 10 μM Hm-3 at −80 mV, oocytes: 67%
[3]
  pKd: 5.21
